Laboratory results reported in patent US7659073.

Row | Substance | relative rate of pPSA activation by hK2 (HIC-HPLC) ([-7]pPSA) | relative rate of pPSA activation by hK2 (HIC-HPLC) ([-2]pPSA) | relative rate of pPSA activation by hK2 (HIC-HPLC) ([-5]pPSA) | relative rate of pPSA activation by hK2 (HIC-HPLC) ([-4]pPSA) | cleavage of the pro leader by trypsin (N-terminal sequencing) ([-2]pPSA)
1 | human kallikrein 2 (hK2) | The [5/-7]pPSA was activated most rapidly | [-2]pPSA was not activated by hK2 | The [5/-7]pPSA was activated most rapidly | the [-4]pPSA was activated more slowly | 
2 | trypsin |  |  |  |  | there was little or no cleavage to release the SR dipeptide of the [-2]pPSA (data not shown)
